Measurements from ChEMBL document CHEMBL1275444, “Fitness trade-offs in blaTEM evolution” (2008).

Substrate: CC1(C)S[C@@H]2[C@H](NC(=O)[C@H](N)c3ccccc3)C(=O)N2[C@H]1C(=O)O
Conditions: Escherichia coli
Description: Ratio of Kcat to Km for Escherichia coli Beta-Lactamase TEM-1

B1: Beta-lactamase TEM-1 (Escherichia coli), Q4GY26 (protein)
chain: MSIQHFRVALIPFFAAFCLPVFAHPETLVKVKDAEDQLGARVGYIELDLNSGKILESFRPEERFPMMSTFKVLLCGAVLSRVDAGQEQLGRRIHYSQNDLVEYSPVTEKHLTDGMTVRELCSAAITMSDNTAANLLLTTIGGPKELTAFLHNMGDHVTRLDRWEPELNEAIPNDERDTTMPAAMATTLRKLLTGELLTLASRQQLIDWMEADKVAGPLLRSALPAGWFIADKSGAGERGSRGIIAALGPDGKPSRIVVIYTTGSQATMD
**Q.** How did the kcat/Km turn out when B1 was run?
**A.** 2.8 ×10⁷ /M/s
